B1: MIA2 (parent)
chain: NSISSDKEATVPCTEILTEKKDTI
B2: FBF1 (parent)
chain: LQRASILDMRRDHEEQLQRLKLLK

Variants of: B1
Assay: protein stability index of a GFP-peptide fusion (GPS, HEK-293T) (PSI 1-6); higher = more stable
Settings: c terminus: a fixed tail appended
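Also: lentivirally expressed fusions sorted by FACS into six bins by GFP to DsRed ratio, PSI derived from sequencing read proportions per bin multiplied by bin number.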

Protein stability index, by site and new letter:
I24: E 5.81; N 5.7; R 5.36; A 5.66; W 5.32; Y 5.36; Q 5.61; F 5.33; V 5.63; M 5.52; H 5.45; P 5.66; G 5.56; K 5.35; L 5.32; C 5.68; T 5.67; S 5.69; D 5.72
T23: F 4.83; Y 5.1; W 4.17; P 5.65; R 5.13; D 5.17; Q 5.55; E 5.61; H 5.3; N 5.24; V 5.32; C 5.46; L 5.37; G 5.5; I 5.09; A 5.55; S 5.47; K 5.54; M 5.33
D22: W 3.49; Q 5.11; C 4.97; G 5.33; I 4.55; H 4.94; M 4.62; V 4.31; A 5.35; R 4.89; N 5.21; L 4.57; F 4.5; E 5.6; K 5.16; T 5.04; S 4.7; Y 4.53; P 5.43
K21: Y 4.84; R 5.39; H 5.15; D 5.72; T 5.51; A 5.37; I 5.14; G 5.16; W 4.59; L 5.42; M 5.7; S 5.37; Q 5; C 5.27; P 5.36; V 5.1; N 5.48; E 5.69; F 5.07
E19: N 5.32; Q 5.22; Y 5.06; W 4.59; K 4.93; P 5.66; L 4.43; S 5.3; R 5.42; M 5.08; V 5.18; T 5.17
K20: Y 4.75; D 5.68; H 5.42; L 4.94; G 5.47; V 5.31; A 5.34; M 5.35; N 5.53; F 4.64; W 4.54; R 5.17; C 5.25; E 5.53; P 5.3; T 5.48; S 5.54; I 5.15; Q 5.39

Variants of: B2
Assay: as above
Settings: c terminus: a fixed tail appended

Protein stability index, by site and new letter:
R10: C 2.8; Q 3.51; F 2.36; T 3.79; Y 2.59; H 3.45; A 3.36; I 2.96; M 2.9; E 3.35; W 3.06; N 3.91; D 3.44; P 3.53; L 2.5; V 3.33; G 3.79; K 3.97; S 3.9
R11: N 3.1; W 2.64; K 3.7; T 3.86; M 3.03; D 3.69; C 3.36; A 3.23; F 2.89; V 3.18; Q 3.59; L 3.44; P 3.67; H 2.88; Y 2.68; S 3.43; G 3.54; E 3.64; I 2.98
R3: M 3.02; E 4.12; K 3.74; F 2.8; L 2.92; A 3.86; I 2.23; D 4.17; V 2.92; S 3.9; N 3.93; P 4.02; T 3.5; Y 3.4; Q 3.33; W 1.9; C 3.02; H 3.92; G 4.21
A4: T 3.6; L 3.13; N 3.83; F 2.9; S 2.67; K 3.19; M 3.19; C 2.97; E 4.02; V 2.57; D 3.64; G 3.17; H 3.73; Q 3.7; W 2.28; I 3.13; R 3.83; P 4.08; Y 2.96
I6: H 4.19; A 4.03; V 3.57; R 3.46; C 3.4; W 3.62; S 4.15; E 3.98; K 3.7; D 4.31; P 3.94; N 4.16; F 3.51; L 4.02; M 3.94; G 4.28; T 3.66; Y 3.58; Q 4.06
D12: S 3.31; A 3.41; V 2.94; I 3.2; N 3.78; H 3.3; Q 3.71; P 3.38; M 2.81; T 3.69; W 2.34; C 2.51; K 3.15; F 2.74; G 3.21; R 3.05; E 3.93; L 2.8
D8: C 3.2; Q 3.07; W 2.5; T 3.49; Y 2.72; G 2.76; L 2.19; V 2.33; P 3.51; K 2.77; H 3.61; I 2.51; E 3.86; N 3.48; S 3.6; M 3.06; F 2.56; R 2.71; A 3.01
Q2: I 2.49; M 3.28; N 3.85; G 3.79; S 3.15; H 3.35; L 2.25; C 2.63; W 2.4; R 3.27; D 3.94; E 3.44; T 3.54; V 2.88; F 3; A 3.28; K 2.93; P 3.95; Y 2.77
S5: F 2.3; D 3.81; Y 2.26; E 3.15; N 3.65; R 2.83; L 2.49; H 2.86; G 3.71; W 2.34; P 3.48; T 3.52; I 2.34; C 2.99; A 3.59; K 3.21; Q 3.85; V 2.92; M 3.03
M9: F 3.22; W 3.04; Q 3.86; E 3.72; I 3.81; L 3.24; A 3.84; R 3.72; D 3.4; S 3.49; K 3.9; P 3.93; T 3.94; V 3.61; G 4.12; H 3.49; C 2.25; N 3.85; Y 3.61
L1: P 3.87; T 3.94; A 3.81; Q 3.69; Y 2.35; R 3.3; V 3.51; K 3.64; N 3.64; M 3.45; E 4.42; I 4.12; C 3.11; H 3.33; S 3.35; F 3.19; D 4.73; W 3.22; G 3.89
L7: C 3.68; S 4.27; N 3.99; E 4.55; Q 3.65; R 3.6; M 3.85; K 3.42; I 3.09; G 4.1; D 4.03; A 4.22; Y 3.56; W 2.9; P 3.98; F 2.85; H 4.1; T 3.38; V 3.97

Source: the supplement of paper PMC10567573
